Reference: patent US5948825A, “Microemulsion preparation containing a slightly absorbable substance” (Institute for Advanced Skin Research Inc., priority 1993, dated 1999)

Legend:
[1] = absorption by the alimentary tract (duodenum); format: in vivo, rats; conditions: route not given; relative to subcutaneous injection = 100%
Description: Rats were incised in the abdomen and a silicone rubber tube was passed through the alimentary tract from the stomach wall to the duodenum, followed by suturing of the stomach wall, peritoneum and skin through which the tube penetrated. […] As in (1), blood was sampled at specified time intervals and the concentration of the drug in the blood was determined.

[2] = administration into the nasal cavity, closure technique; format: in vivo; conditions: rats; relative to subcutaneous injection (integrated blood concentration over time) = 100%
Description: Rats were anesthetized and medisected in the neck to expose the windpipe and esophagus. Part of the windpipe was incised and a polyethylene tube was inserted into the windpipe to secure the airway, followed by ligation. The nostril and the opening in the incisive caval on the oral cavity side were closed with an adhesive. Part of the esophagus was incised for insertion of a nutrition catheter until its end reached into the nasal cavity. The part of the esophagus into which the nutrition catheter was inserted was ligated. […] Blood was sampled at specified time intervals and the change in the concentration of the drug in the blood was determined over time.
Availability: Relative value with the availability upon subcutaneous

[3] = absorption by the rectum (through the mucous membrane); format: in vivo; conditions: rats; relative to subcutaneous injection (integrated blood concentration over time) = 100%
Description: Rats were starved from the day before experiment until there was little feces left in the abdomen. […] Immediately after the injection, the anus was bound with a rubber band to prevent the leakage of the microemulsion. Blood was sampled at specified time intervals and the concentration of the drug in the blood was determined.

Substance | availability values (macromolecular peptides such as erythropoietin) [1] | Availability, nasal cavity [2] [%] | Availability, rectum [3]
erythropoietin: macromolecular peptide drug | 2-3% | – | –
calcitonin: peptide drug of low absorbability through the mucous membrane | – | 50 | 22-23%
